Source: FireProtDB (doi:10.1110/ps.0205902)

Conditions: Aspergillus oryzae (strain ATCC 42149 / RIB 40), pH 3, 25 °C, Urea, CD, Glycine-HCl 3 mM, reversible: yes, whole UniProt chain shown

B1: Guanyl-specific ribonuclease T1 wild type, P00651 (protein)
chain: MMYSKLLTLTTLLLPTALALPSLVERACDYTCGSNCYSSSDVSTAQAAGYQLHEDGETVGSNSYPHKYNNYEGFDFSVSSPYYEWPILSSGDVYSGGSPGADRVVFNENNQLAGVITHTGASGNNFVECT
- denaturant m value (Na2SO4 0.01 M): 1.67 kcal/mol/M
- denaturant midpoint (higher = more stable) (Na2SO4 0.01 M): 2.55 M
- unfolding free energy (Na2SO4 0.01 M): 4.2 kcal/mol
- denaturant m value (Na2SO4 0.20 M): 1.52 kcal/mol/M
- denaturant midpoint (higher = more stable) (Na2SO4 0.20 M): 4.21 M
- unfolding free energy (Na2SO4 0.20 M): 6.38 kcal/mol
- denaturant m value (Na2SO4 0.50 M): 1.5 kcal/mol/M
- denaturant midpoint (higher = more stable) (Na2SO4 0.50 M): 5.28 M
- unfolding free energy (Na2SO4 0.50 M): 7.91 kcal/mol
- denaturant m value (Na2SO4 0.80 M): 1.47 kcal/mol/M
- denaturant midpoint (higher = more stable) (Na2SO4 0.80 M): 5.81 M
- unfolding free energy (Na2SO4 0.80 M): 8.56 kcal/mol
- denaturant m value (NaCl 0.01 M): 2.29 kcal/mol/M
- denaturant midpoint (higher = more stable) (NaCl 0.01 M): 1.43 M
- unfolding free energy (NaCl 0.01 M): 3.26 kcal/mol
- denaturant m value (NaCl 0.25 M): 1.85 kcal/mol/M
- denaturant midpoint (higher = more stable) (NaCl 0.25 M): 2 M
- unfolding free energy (NaCl 0.25 M): 3.69 kcal/mol
- denaturant m value (NaCl 0.50 M): 1.8 kcal/mol/M
- denaturant midpoint (higher = more stable) (NaCl 0.50 M): 2.49 M
- unfolding free energy (NaCl 0.50 M): 4.48 kcal/mol
- denaturant m value (NaCl 0.75 M): 1.75 kcal/mol/M
- denaturant midpoint (higher = more stable) (NaCl 0.75 M): 2.91 M
- unfolding free energy (NaCl 0.75 M): 5.07 kcal/mol
- denaturant m value (NaCl 1.00 M): 1.64 kcal/mol/M
- denaturant midpoint (higher = more stable) (NaCl 1.00 M): 3.21 M
- unfolding free energy (NaCl 1.00 M): 5.28 kcal/mol
- denaturant m value (NaSCN 0.01 M): 2.21 kcal/mol/M
- denaturant midpoint (higher = more stable) (NaSCN 0.01 M): 1.44 M
- unfolding free energy (NaSCN 0.01 M): 3.05 kcal/mol
- denaturant m value (NaSCN 0.05 M): 1.87 kcal/mol/M
- denaturant midpoint (higher = more stable) (NaSCN 0.05 M): 1.55 M
- unfolding free energy (NaSCN 0.05 M): 2.91 kcal/mol
- denaturant m value (NaSCN 0.25 M): 1.23 kcal/mol/M
- denaturant midpoint (higher = more stable) (NaSCN 0.25 M): 1.5 M
- unfolding free energy (NaSCN 0.25 M): 1.85 kcal/mol
- denaturant m value (NaSCN 0.50 M): 1.03 kcal/mol/M
- denaturant midpoint (higher = more stable) (NaSCN 0.50 M): 1.38 M
- unfolding free energy (NaSCN 0.50 M): 1.43 kcal/mol
- denaturant m value (NaSCN 0.75 M): 1.1 kcal/mol/M
- denaturant midpoint (higher = more stable) (NaSCN 0.75 M): 1.04 M
- unfolding free energy (NaSCN 0.75 M): 1.14 kcal/mol
- denaturant m value: 2.24 kcal/mol/M
- denaturant midpoint (higher = more stable): 1.48 M
- unfolding free energy: 3.28 kcal/mol
